Reference: patent US20100092464A1 (Novartis, published 2010)
Like-named read-outs stand apart in the source and are kept apart here.

T1: human macrophage colony stimulating factor (M-CSF) (human, UniProt P09603 33-190, limits assumed)
T1 sequence: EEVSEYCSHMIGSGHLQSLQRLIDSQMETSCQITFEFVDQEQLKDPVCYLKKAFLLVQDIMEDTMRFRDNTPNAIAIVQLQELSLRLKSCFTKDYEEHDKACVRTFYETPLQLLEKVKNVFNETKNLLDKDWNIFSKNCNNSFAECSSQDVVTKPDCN


Assays:
[1] = biological target: T1, human macrophage colony stimulating …; experiment: cell-based or functional assay
[2] = biological target: T1, human macrophage colony stimulating …; experiment: cell-based or functional assay; remark: listed apart in the source
[3] = biological target: T1, human macrophage colony stimulating …; experiment: cell-based or functional assay; remark: listed apart in the source
[4] = biological target: T1, human macrophage colony stimulating …; experiment: cell-based or functional assay; remark: listed apart in the source
[5] = biological target: T1, human macrophage colony stimulating …; experiment: cell-based or functional assay; remark: listed apart in the source
[6] = biological target: T1, human macrophage colony stimulating …; experiment: M-CSF and antibody mixed at equal molar ratios; size exclusion chromatography or light scattering
Text: The antigen-antibody complexes that the various Human Engineered™ RX1 antibodies formed with MCSF were studied by combining M-CSF and antibody in buffer at equal molar ratios, followed by analysis of the size of the antigen-antibody complex using size exclusion chromatography or light scattering. […] The heRX1-9.G2 or 1-10.G2 antibodies appeared to form 2:1 or 2:2 complexes with MCSF of about 400 kDa. The heRX1-1.G2 appeared to form large lattice aggregates with MCSF of greater than 2×10⁶ Da. The IgG1 and IgG4 constructs formed small complexes similar to that of murine parent RX1.

IC50 Fold Loss (M-NFS-60 cell proliferation) [1] | IC50 (read off the curve) [2] | IC50 (read off the curve) [3] | Binder | further results
2.8 fold | ~0.03 µg/mL | ~0.02 µg/mL | Human Engineered RX1 antibody heRX1-1.G2 (antibody, V domains shown) VH: DVQLQESGPGLVKPSQTLSLTCTVTDYSITSDYAWNWIRQFPGKKLEWMGYISYSGSTSYNPSLKSRITISRDTSKNQFSLQLNSVTAADTATYYCASFDYAHAMDYWGQGTTVTVSS VL: EIVLTQSPGTLSVSPGERVTFSCRASQSIGTSIHWYQQKTGQSPRLLIKYASERISGIPDRFSGSGSGTDFTLTISRVESEDFADYYCQQINSWPTTFGQGTKLEIKR | –
– | ~0.02 µg/mL | ~0.01 µg/mL | Human Engineered RX1 antibody heRX1-1.G4 (antibody, V domains shown) VH: DVQLQESGPGLVKPSQTLSLTCTVTDYSITSDYAWNWIRQFPGKKLEWMGYISYSGSTSYNPSLKSRITISRDTSKNQFSLQLNSVTAADTATYYCASFDYAHAMDYWGQGTTVTVSS VL: EIVLTQSPGTLSVSPGERVTFSCRASQSIGTSIHWYQQKTGQSPRLLIKYASERISGIPDRFSGSGSGTDFTLTISRVESEDFADYYCQQINSWPTTFGQGTKLEIKR | –
– | ~0.02 µg/mL | ~0.01 µg/mL | Human Engineered RX1 antibody heRX1-1.G1 (antibody, V domains shown) VH: DVQLQESGPGLVKPSQTLSLTCTVTDYSITSDYAWNWIRQFPGKKLEWMGYISYSGSTSYNPSLKSRITISRDTSKNQFSLQLNSVTAADTATYYCASFDYAHAMDYWGQGTTVTVSS VL: EIVLTQSPGTLSVSPGERVTFSCRASQSIGTSIHWYQQKTGQSPRLLIKYASERISGIPDRFSGSGSGTDFTLTISRVESEDFADYYCQQINSWPTTFGQGTKLEIKR | –
– | ~0.02 µg/mL | ~0.01 µg/mL | M-CSF-specific murine monoclonal antibody RX1 (antibody, V domains shown, Hybridoma-derived and recombinant murine RX1 are written as one molecule; also called Murine RX1; rRX1(mouse)) VH: DVQLQESGPGLVKPSQSLSLTCTVTDYSITSDYAWNWIRQFPGNKLEWMGYISYSGSTSYNPSLKSRISITRDTSKNQFFLQLNSVTTEDTATYYCASFDYAHAMDYWGQGTSVTVSS VL: not shown | EC50 (M-CSF neutralisation) [4]: 0.002 µg/mL; IC50 (read off the curve) [5]: ~0.02 µg/mL; size of antigen-antibody complex [6]: ~200 kDa
2.2 fold | – | – | Human Engineered RX1 antibody heRX1-10.G2 (antibody, V domains shown, Human Gamma-2 / Kappa constant regions) VH: QVQLQESGPGLVKPSQTLSLTCTVSDYSITSDYAWNWIRQFPGKGLEWMGYISYSGSTSYNPSLKSRITISRDTSKNQFSLQLNSVTAADTAVYYCASFDYAHAMDYWGQGTTVTVSS VL: DIVLTQSPAFLSVTPGEKVTFTCQASQSIGTSIHWYQQKTDQAPKLLIKYASESISGIPSRFSGSGSGTDFTLTISSVEAEDAADYYCQQINSWPTTFGGGTKLEIKR | size of antigen-antibody complex [6]: ~400 kDa
– | – | – | Fab fragment of recombinant murine RX1 (Fab, V domains shown) VH: DVQLQESGPGLVKPSQSLSLTCTVTDYSITSDYAWNWIRQFPGNKLEWMGYISYSGSTSYNPSLKSRISITRDTSKNQFFLQLNSVTTEDTATYYCASFDYAHAMDYWGQGTSVTVSS VL: not shown | IC50 (read off the curve) [5]: ~2 µg/mL
5.3 fold | – | – | Human Engineered RX1 antibody heRX1-3.G2 (antibody, V domains shown) VH: DVQLQESGPGLVKPSQTLSLTCTVTDYSITSDYAWNWIRQFPGKKLEWMGYISYSGSTSYNPSLKSRITISRDTSKNQFSLQLNSVTAADTATYYCASFDYAHAMDYWGQGTTVTVSS VL: EIVLTQSPGTLSVSPGERVTFSCRASQSIGTSIHWYQQKTGQAPRLLIKYASERATGIPDRFSGSGSGTDFTLTISRVESEDFADYYCQQINSWPTTFGQGTKLEIKR | –
3.1 fold | – | – | Human Engineered RX1 antibody heRX1-2.G2 (antibody, V domains shown) VH: QVQLQESGPGLVKPSQTLSLTCTVSDYSITSDYAWNWIRQFPGKGLEWMGYISYSGSTSYNPSLKSRITISRDTSKNQFSLQLNSVTAADTAVYYCASFDYAHAMDYWGQGTTVTVSS VL: EIVLTQSPGTLSVSPGERVTFSCRASQSIGTSIHWYQQKTGQSPRLLIKYASERISGIPDRFSGSGSGTDFTLTISRVESEDFADYYCQQINSWPTTFGQGTKLEIKR | –
4.6 fold | – | – | Human Engineered RX1 antibody heRX1-4.G2 (antibody, V domains shown) VH: QVQLQESGPGLVKPSQTLSLTCTVSDYSITSDYAWNWIRQFPGKGLEWMGYISYSGSTSYNPSLKSRITISRDTSKNQFSLQLNSVTAADTAVYYCASFDYAHAMDYWGQGTTVTVSS VL: EIVLTQSPGTLSVSPGERVTFSCRASQSIGTSIHWYQQKTGQAPRLLIKYASERATGIPDRFSGSGSGTDFTLTISRVESEDFADYYCQQINSWPTTFGQGTKLEIKR | –
5.9 fold | – | – | Human Engineered RX1 antibody heRX1-8.G2 (antibody, V domains shown) VH: QVQLQESGPGLVKPSQTLSLTCTVSDYSITSDYAWNWIRQFPGKGLEWMGYISYSGSTSYNPSLKSRITISRDTSKNQFSLQLNSVTAADTAVYYCASFDYAHAMDYWGQGTTVTVSS VL: EIVLTQSPGTLSVSPGERVTFSCRASQSIGTSIHWYQQKTGQAPRLLIKYASESISGIPDRFSGSGSGTDFTLTISRVESEDFADYYCQQINSWPTTFGQGTKLEIKR | –
6.5 fold | – | – | Human Engineered RX1 antibody heRX1-5.G2 (antibody, V domains shown) VH: DVQLQESGPGLVKPSQTLSLTCTVTDYSITSDYAWNWIRQFPGKKLEWMGYISYSGSTSYNPSLKSRITISRDTSKNQFSLQLNSVTAADTATYYCASFDYAHAMDYWGQGTTVTVSS VL: EIVLTQSPGTLSVSPGERVTFSCRASQSIGTSIHWYQQKTGQSPRLLIKYASESISGIPDRFSGSGSGTDFTLTISRVESEDFADYYCQQINSWPTTFGQGTKLEIKR | –
3.6 fold | – | – | Human Engineered RX1 antibody heRX1-9.G2 (antibody, V domains shown, Human Gamma-2 / Kappa constant regions) VH: DVQLQESGPGLVKPSQTLSLTCTVTDYSITSDYAWNWIRQFPGKKLEWMGYISYSGSTSYNPSLKSRITISRDTSKNQFSLQLNSVTAADTATYYCASFDYAHAMDYWGQGTTVTVSS VL: DIVLTQSPAFLSVTPGEKVTFTCQASQSIGTSIHWYQQKTDQAPKLLIKYASESISGIPSRFSGSGSGTDFTLTISSVEAEDAADYYCQQINSWPTTFGGGTKLEIKR | size of antigen-antibody complex [6]: ~400 kDa
6.1 fold | – | – | Human Engineered RX1 antibody heRX1-7.G2 (antibody, V domains shown) VH: DVQLQESGPGLVKPSQTLSLTCTVTDYSITSDYAWNWIRQFPGKKLEWMGYISYSGSTSYNPSLKSRITISRDTSKNQFSLQLNSVTAADTATYYCASFDYAHAMDYWGQGTTVTVSS VL: EIVLTQSPGTLSVSPGERVTFSCRASQSIGTSIHWYQQKTGQAPRLLIKYASESISGIPDRFSGSGSGTDFTLTISRVESEDFADYYCQQINSWPTTFGQGTKLEIKR | –
